Measurements from patent publication US20190248900A1 (Y BIOLOGICS, published 2019).

B1: PD1-49B9 (antibody, V domains shown)
VH: QMQLVESGGGLVQPGRSLRLSCAASGFTFEDYAMHWVRQPPGKGLEWVSSISWNSHNIAYADSVKGRFTISRDNSKNSLYLQMNSLRAEDTAVYYCSTSGLGVHAWGQGTMVTVSS
VL: QSALTQPPSASGSPGQSVTISCTGTSSDVGGYNYVSWYQQHPGKAPKLMIYEVSKRPSGVPDRFSGSKSGNTASLTVSGLQPEDEADYYCSSFARNSNYVFGTGTKVTVL
notes: scFv-phage in the screening ELISA; later whole IgG
B2: PD1-32A6 (antibody, V domains shown)
VH: QVQLVQSGAEVKKPGSSVKVSCKASGDTFTRNAVSWVRQAPGEGLEWMADIIPIFGSANYAQKFQGRLTLTADVSTSTAYMELSSLRSEDTAVYYCARTIEGAFDIWGQGTMVTVSS
VL: DIQMTQSPSSVSASVGDRVTITCRASQGIVSWLAWYQQKPGKAPRLLIYRASDLETGVPSRFSGSGSGTDFTLTISSLQPEDVATYYCQQADSFPLTFGGGTKVEIK
notes: as for B1
B3: PD1-45F1 (antibody, V domains shown)
VH: QVQLVQSGAEVKKPGASVKLSCKASGYTFNSYYVHWVRQAPGQGLEWMGIINPSDGSATYAQKFQGRVTMTSDTSTSSVYMELSSLRSEDTAVYYCARDGNYYDSRGYYYDTFDMWGQGTLITVSS
VL: SYELTQDPAVSVALGQTVRITCQGDSLRTYYASWYQQKPGQAPILVIYGKNNRPSGIPDRFSGSSSGNTASLTITAAQAEDEADYYCNSRDSSGKSLVFGGGTKLTVL
notes: as for B1
B4: PD1-45F4 (antibody, V domains shown)
VH: QMQLVESGGGLVQPGRSLRLSCAASGFTFDDYAMHWVRQAPGQGLEWVSGISWNSNNIKYADSVKGRFTISRDNSKNSLYLQMNSLRAEDTAVYYCARGALTPLDVWGQGTPVTVSS
VL: SYELTQAPSLSVSPGQTANIICSGDNLRTKYVSWYQQKPGQSPLLVIYQDTRRPSGIPARFSGSNSGNTATLTISGTQTRDESTYYCMTWDVDTTSMIFGGGTKLTVL
notes: as for B1
B5: PD1-44B5 (antibody, V domains shown)
VH: QVQLVESGGGVVQPGRSLRLSCAASGFTFSSYAMHWVRQAPGKGLEWVAVISYDGSNKYYADSVKGRFTISRDNSKNTLYLQMNSLRAEDTAVYYCARLMHTFSVQYFLDVWGQGTTVTVSS
VL: QFVLTQSPSASGTPGQNIVISCSASTFNIGTTTVNWYQRLPGTAPKLLIYNYDQRPSGVPDRFSGSKSGTSASLAISGLQSEDEADYYCAAWDDSLNAWLFGGGTKLTVL
notes: as for B1
B6: PD1-42G4 (antibody, V domains shown)
VH: QVQLVESGGGLVKPGGSLRLSCAASGFTFSDYYMSWIRQAPGKGLEWVSDISASGNSIYYADSVKRRFTISRDNSKNSLYLQMNSLRAEDTAVYYCVTSGPFGEFRNWGLGTLVTVSS
VL: DIQMTQSPSSLSASVGDRVTTTCRASQGISSYLAWYQQKPGKAPKLLIYAASTLQSGVPSRFSGSGSGTDFTLTISSLQPEDFATYFCQQSYTSPRTFGQGTKLDIK
notes: as for B1

target: T1, M3; assay: scFv-phage ELISA
T1 construct: also called PD1 mutant M3

Binder | OD490
B1 | 3.9
B2 | 3
B3 | 3.8
B4 | 3.7
B5 | 3.7
B6 | 2

target: T2, antigen PD1 (coated, construct not stated) (UniProt Q15116 25-170, limits assumed); assay: scFv-phage ELISA
T2 construct: also called PD1 antigen; PDCD1
T2 sequence (Q15116 25-170 limits assumed): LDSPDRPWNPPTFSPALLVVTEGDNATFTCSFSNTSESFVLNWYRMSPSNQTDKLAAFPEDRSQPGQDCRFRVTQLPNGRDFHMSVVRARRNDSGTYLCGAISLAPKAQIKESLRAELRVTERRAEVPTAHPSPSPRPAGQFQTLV

Binder | OD490
B1 | 3.9
B2 | 3.5
B3 | 4
B4 | 3.8
B5 | 3.8
B6 | 2.8

target: T3, M12; assay: scFv-phage ELISA
T3 construct: also called PD1 mutant M12

Binder | OD490
B1 | 3.9
B2 | 2.7
B3 | 0.4
B4 | 3.7
B5 | 3.6
B6 | 2.7

target: T4, M1; assay: scFv-phage ELISA
T4 construct: also called PD1 mutant M1

Binder | OD490
B1 | 3.9
B2 | 2.4
B3 | 3.9
B4 | 2.6
B5 | 3.8
B6 | 1.8

target: T5, M5-1; assay: scFv-phage ELISA
T5 construct: also called PD1 mutant M5-1

Binder | OD490
B1 | 3.9
B2 | 3.6
B3 | 3.9
B4 | 0.1
B5 | 3.7
B6 | 1.9

target: T6, M7-2; assay: scFv-phage ELISA
T6 construct: also called PD1 mutant M7-2

Binder | OD490
B1 | 3.9
B2 | 2.8
B3 | 3.9
B4 | 3.4
B5 | 3.7
B6 | 2.7

target: T7, M5-2; assay: scFv-phage ELISA
T7 construct: also called PD1 mutant M5-2

Binder | OD490
B1 | 4
B2 | 2.8
B3 | 3.9
B4 | 3.1
B5 | 3.8
B6 | 3.5

target: T8, M10; assay: scFv-phage ELISA
T8 construct: also called PD1 mutant M10

Binder | OD490
B1 | 3.9
B2 | 2.5
B3 | 3.9
B4 | 3.3
B5 | 3.7
B6 | 3.1

target: T9, M2-2; assay: scFv-phage ELISA
T9 construct: also called PD1 mutant M2-2

Binder | OD490
B1 | 3.9
B2 | 2.7
B3 | 4
B4 | 2.5
B5 | 3.7
B6 | 3

target: T10, M9; assay: scFv-phage ELISA
T10 construct: also called PD1 mutant M9

Binder | OD490
B1 | 3.9
B2 | 2.4
B3 | 3.8
B4 | 3.3
B5 | 3.7
B6 | 3.4

target: T11, M5; assay: scFv-phage ELISA
T11 construct: also called PD1 mutant M5

Binder | OD490
B1 | 3.9
B2 | 2.9
B3 | 3.8
B4 | 0.1
B5 | 3.7
B6 | 1.6

target: T12, M7-1; assay: scFv-phage ELISA
T12 construct: also called PD1 mutant M7-1

Binder | OD490
B1 | 3.9
B2 | 3.1
B3 | 3.9
B4 | 3.5
B5 | 3.7
B6 | 2.8

target: T13, ITGA6-Fc; assay: scFv-phage ELISA
T13 construct: Fc fusion
T13 sequence (P23229 whole entry, species assumed, looked up): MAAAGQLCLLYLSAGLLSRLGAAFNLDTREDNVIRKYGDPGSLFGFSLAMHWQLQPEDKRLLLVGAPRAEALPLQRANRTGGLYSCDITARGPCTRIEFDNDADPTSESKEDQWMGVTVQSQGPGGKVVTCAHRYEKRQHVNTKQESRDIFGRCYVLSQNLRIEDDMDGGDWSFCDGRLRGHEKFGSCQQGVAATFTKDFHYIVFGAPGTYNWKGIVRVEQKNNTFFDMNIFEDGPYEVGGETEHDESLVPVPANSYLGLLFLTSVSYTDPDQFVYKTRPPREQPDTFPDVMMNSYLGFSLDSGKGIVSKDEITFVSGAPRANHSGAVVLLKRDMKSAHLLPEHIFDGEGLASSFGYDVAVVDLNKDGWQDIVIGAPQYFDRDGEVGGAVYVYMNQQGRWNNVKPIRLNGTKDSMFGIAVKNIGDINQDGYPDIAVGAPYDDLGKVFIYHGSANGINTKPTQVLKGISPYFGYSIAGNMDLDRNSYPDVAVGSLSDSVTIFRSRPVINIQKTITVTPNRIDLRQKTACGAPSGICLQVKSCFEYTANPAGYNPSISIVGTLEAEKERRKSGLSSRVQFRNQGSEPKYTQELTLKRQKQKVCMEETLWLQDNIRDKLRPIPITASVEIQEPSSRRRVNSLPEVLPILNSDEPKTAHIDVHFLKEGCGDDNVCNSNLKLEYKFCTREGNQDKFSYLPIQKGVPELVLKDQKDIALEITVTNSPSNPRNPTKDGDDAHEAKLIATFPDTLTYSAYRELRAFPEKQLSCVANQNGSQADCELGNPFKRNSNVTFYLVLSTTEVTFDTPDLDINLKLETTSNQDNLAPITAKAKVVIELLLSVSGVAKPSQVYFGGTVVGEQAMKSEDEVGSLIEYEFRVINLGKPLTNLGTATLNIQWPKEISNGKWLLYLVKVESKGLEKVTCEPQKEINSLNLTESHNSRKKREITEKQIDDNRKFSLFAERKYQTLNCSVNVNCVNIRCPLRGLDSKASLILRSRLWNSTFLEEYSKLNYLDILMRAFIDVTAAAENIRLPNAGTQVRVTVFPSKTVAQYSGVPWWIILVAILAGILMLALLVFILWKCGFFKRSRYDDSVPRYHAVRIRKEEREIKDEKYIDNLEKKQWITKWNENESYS

Binder | OD490
B1 | 0.3
B2 | 0.3
B3 | 0.1
B4 | 0.1
B5 | 0.3
B6 | 0.4

target: T14, M2; assay: scFv-phage ELISA
T14 construct: also called PD1 mutant M2

Binder | OD490
B1 | 3.9
B2 | 3.2
B3 | 3.8
B4 | 2.9
B5 | 3.7
B6 | 0.6

target: T15, M13; assay: scFv-phage ELISA
T15 construct: also called PD1 mutant M13

Binder | OD490
B1 | 3.9
B2 | 0.5
B3 | 2.2
B4 | 3.5
B5 | 3.7
B6 | 3.7

target: T16, M6; assay: scFv-phage ELISA
T16 construct: also called PD1 mutant M6

Binder | OD490
B1 | 3.9
B2 | 2.9
B3 | 4
B4 | 3.7
B5 | 3.7
B6 | 3.3

target: T17, M11; assay: scFv-phage ELISA
T17 construct: also called PD1 mutant M11

Binder | OD490
B1 | 1.4
B2 | 3.3
B3 | 3.8
B4 | 0.3
B5 | 3.8
B6 | 1.7

target: T18, M2-1; assay: scFv-phage ELISA
T18 construct: also called PD1 mutant M2-1

Binder | OD490
B1 | 3.8
B2 | 2.8
B3 | 3.9
B4 | 3
B5 | 3.6
B6 | 0.6

target: T19, M7; assay: scFv-phage ELISA
T19 construct: also called PD1 mutant M7

Binder | OD490
B1 | 3.9
B2 | 3.2
B3 | 3.8
B4 | 3.5
B5 | 3.6
B6 | 2.5

target: T20, M1-2; assay: scFv-phage ELISA
T20 construct: also called PD1 mutant M1-2

Binder | OD490
B1 | 3.9
B2 | 2.8
B3 | 3.9
B4 | 3.6
B5 | 0.3
B6 | 0.6

target: T21, M14; assay: scFv-phage ELISA
T21 construct: also called PD1 mutant M14

Binder | OD490
B1 | 3.9
B2 | 1.7
B3 | 3.8
B4 | 1.8
B5 | 3.7
B6 | 3.7

target: T22, M4; assay: scFv-phage ELISA
T22 construct: also called PD1 mutant M4

Binder | OD490
B1 | 3.8
B2 | 2.4
B3 | 3.9
B4 | 2.7
B5 | 3.6
B6 | 1.9

target: T23, M8; assay: scFv-phage ELISA
T23 construct: also called PD1 mutant M8

Binder | OD490
B1 | 4
B2 | 3.1
B3 | 3.9
B4 | 3.6
B5 | 3.5
B6 | 2.1

target: T24, M1-1; assay: scFv-phage ELISA
T24 construct: also called PD1 mutant M1-1

Binder | OD490
B1 | 3.8
B2 | 2.6
B3 | 3.9
B4 | 2.5
B5 | 3.6
B6 | 2.9
